T1: Human PTK7 Protein, His Tag, Acro Biosystems (human, UniProt Q13308 31-704)
T1 construct: Bought recombinant protein; also called CCK4; not shown: His tag
T1 sequence: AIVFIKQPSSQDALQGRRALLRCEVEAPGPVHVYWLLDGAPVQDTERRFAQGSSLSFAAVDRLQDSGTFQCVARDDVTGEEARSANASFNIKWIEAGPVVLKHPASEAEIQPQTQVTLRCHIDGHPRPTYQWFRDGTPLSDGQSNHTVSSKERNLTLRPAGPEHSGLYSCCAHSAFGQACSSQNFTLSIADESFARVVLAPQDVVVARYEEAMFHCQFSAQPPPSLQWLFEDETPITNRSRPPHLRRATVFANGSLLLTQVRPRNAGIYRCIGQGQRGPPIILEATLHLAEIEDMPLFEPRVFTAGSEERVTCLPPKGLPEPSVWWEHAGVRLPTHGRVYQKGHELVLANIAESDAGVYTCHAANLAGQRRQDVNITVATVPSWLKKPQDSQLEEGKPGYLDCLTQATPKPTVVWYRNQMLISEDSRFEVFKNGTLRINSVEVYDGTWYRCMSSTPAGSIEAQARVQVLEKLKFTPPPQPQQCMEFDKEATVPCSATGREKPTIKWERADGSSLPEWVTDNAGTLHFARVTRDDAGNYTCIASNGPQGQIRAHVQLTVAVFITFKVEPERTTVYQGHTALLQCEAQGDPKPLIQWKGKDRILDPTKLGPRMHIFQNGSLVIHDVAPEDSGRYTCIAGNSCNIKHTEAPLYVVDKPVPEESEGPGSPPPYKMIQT


What follows are binders tested against T1, Human PTK7 Protein, His Tag, Acro … (assay: BLI, anti-human Fc capture, 50 nM PTK7; 2 = substantially similar binding relative to parent).

Row | binding result | Binder
1 | binds | MYT11129 (antibody, V domains shown, MYT9412 HC variant) VH: EVQLVESGGGLVQPGGSLRLSCTASGFSLSTYAMSWVRQAPGKGLEWVGMIYINDNTYYASWAKGRFTISRDTSKNTVYLQMNSLRAEDTAVYFCAHDIGISYYIGVSLWGQGTLVTVSS VL: EIVMTQSPSTLSASVGDRVIITCQASQSIGTRLSWYQQKPGKAPKLLIYGASKLATGVPSRFSGSGSGAEFTLTISSLQPDDFATYYCLGEYSYTTTDGIAFGQGTKLTVL
2 | binds | MYT11122 (antibody, V domains shown, MYT9412 HC variant) VH: EVQLVESGGGLVQPGGSLRLSCTASGFSLSTYAMSWVRQAPGKGLEWVGMIYINDNTYYHSWAKGRFTISRDTSKNTVYLQMNSLRAEDTAVYFCARDIGISYYIGVSLWGQGTLVTVSS VL: EIVMTQSPSTLSASVGDRVIITCQASQSIGTRLSWYQQKPGKAPKLLIYGASKLATGVPSRFSGSGSGAEFTLTISSLQPDDFATYYCLGEYSYTTTDGIAFGQGTKLTVL
3 | binds | MYT11135 (antibody, V domains shown, MYT9412 HC variant) VH: EVQLVESGGGLVQPGGSLRLSCTASGFSLSTYAMSWVRQAPGKGLEWVGMIYINDNTYYASWAKGRFTISRDTSKNTVYLQMNSLRAEDTAVYFCARDIGISHYIGVSLWGQGTLVTVSS VL: EIVMTQSPSTLSASVGDRVIITCQASQSIGTRLSWYQQKPGKAPKLLIYGASKLATGVPSRFSGSGSGAEFTLTISSLQPDDFATYYCLGEYSYTTTDGIAFGQGTKLTVL
4 | binds | MYT11119 (antibody, V domains shown, MYT9412 HC variant) VH: EVQLVESGGGLVQPGGSLRLSCTASGFSLSTYAMSWVRQAPGKGLEWVGMIYINDNHYYASWAKGRFTISRDTSKNTVYLQMNSLRAEDTAVYFCARDIGISYYIGVSLWGQGTLVTVSS VL: EIVMTQSPSTLSASVGDRVIITCQASQSIGTRLSWYQQKPGKAPKLLIYGASKLATGVPSRFSGSGSGAEFTLTISSLQPDDFATYYCLGEYSYTTTDGIAFGQGTKLTVL
5 | binds | MYT11118 (antibody, V domains shown, MYT9412 HC variant) VH: EVQLVESGGGLVQPGGSLRLSCTASGFSLSTYAMSWVRQAPGKGLEWVGMIYINDHTYYASWAKGRFTISRDTSKNTVYLQMNSLRAEDTAVYFCARDIGISYYIGVSLWGQGTLVTVSS VL: EIVMTQSPSTLSASVGDRVIITCQASQSIGTRLSWYQQKPGKAPKLLIYGASKLATGVPSRFSGSGSGAEFTLTISSLQPDDFATYYCLGEYSYTTTDGIAFGQGTKLTVL
6 | binds | MYT11113 (antibody, V domains shown, MYT9412 HC variant) VH: EVQLVESGGGLVQPGGSLRLSCTASGFSLSTYAMSWVRQAPGKGLEWVGMHYINDNTYYASWAKGRFTISRDTSKNTVYLQMNSLRAEDTAVYFCARDIGISYYIGVSLWGQGTLVTVSS VL: EIVMTQSPSTLSASVGDRVIITCQASQSIGTRLSWYQQKPGKAPKLLIYGASKLATGVPSRFSGSGSGAEFTLTISSLQPDDFATYYCLGEYSYTTTDGIAFGQGTKLTVL
7 | binds | MYT11121 (antibody, V domains shown, MYT9412 HC variant) VH: EVQLVESGGGLVQPGGSLRLSCTASGFSLSTYAMSWVRQAPGKGLEWVGMIYINDNTYHASWAKGRFTISRDTSKNTVYLQMNSLRAEDTAVYFCARDIGISYYIGVSLWGQGTLVTVSS VL: EIVMTQSPSTLSASVGDRVIITCQASQSIGTRLSWYQQKPGKAPKLLIYGASKLATGVPSRFSGSGSGAEFTLTISSLQPDDFATYYCLGEYSYTTTDGIAFGQGTKLTVL

Continued, binder first:

Row | Binder | binding result
8 | MYT11104 (antibody, V domains shown, MYT9412 HC variant) VH: EVQLVESGGGLVQPGGSLRLSCTASGFHLSTYAMSWVRQAPGKGLEWVGMIYINDNTYYASWAKGRFTISRDTSKNTVYLQMNSLRAEDTAVYFCARDIGISYYIGVSLWGQGTLVTVSS VL: EIVMTQSPSTLSASVGDRVIITCQASQSIGTRLSWYQQKPGKAPKLLIYGASKLATGVPSRFSGSGSGAEFTLTISSLQPDDFATYYCLGEYSYTTTDGIAFGQGTKLTVL | binds
9 | MYT11109 (antibody, V domains shown, MYT9412 HC variant) VH: EVQLVESGGGLVQPGGSLRLSCTASGFSLSTYHMSWVRQAPGKGLEWVGMIYINDNTYYASWAKGRFTISRDTSKNTVYLQMNSLRAEDTAVYFCARDIGISYYIGVSLWGQGTLVTVSS VL: EIVMTQSPSTLSASVGDRVIITCQASQSIGTRLSWYQQKPGKAPKLLIYGASKLATGVPSRFSGSGSGAEFTLTISSLQPDDFATYYCLGEYSYTTTDGIAFGQGTKLTVL | binds
10 | MYT11139 (antibody, V domains shown, MYT9412 HC variant) VH: EVQLVESGGGLVQPGGSLRLSCTASGFSLSTYAMSWVRQAPGKGLEWVGMIYINDNTYYASWAKGRFTISRDTSKNTVYLQMNSLRAEDTAVYFCARDIGISYYIGHSLWGQGTLVTVSS VL: EIVMTQSPSTLSASVGDRVIITCQASQSIGTRLSWYQQKPGKAPKLLIYGASKLATGVPSRFSGSGSGAEFTLTISSLQPDDFATYYCLGEYSYTTTDGIAFGQGTKLTVL | binds
11 | MYT11140 (antibody, V domains shown, MYT9412 HC variant) VH: EVQLVESGGGLVQPGGSLRLSCTASGFSLSTYAMSWVRQAPGKGLEWVGMIYINDNTYYASWAKGRFTISRDTSKNTVYLQMNSLRAEDTAVYFCARDIGISYYIGVHLWGQGTLVTVSS VL: EIVMTQSPSTLSASVGDRVIITCQASQSIGTRLSWYQQKPGKAPKLLIYGASKLATGVPSRFSGSGSGAEFTLTISSLQPDDFATYYCLGEYSYTTTDGIAFGQGTKLTVL | binds
12 | MYT11126 (antibody, V domains shown, MYT9412 HC variant) VH: EVQLVESGGGLVQPGGSLRLSCTASGFSLSTYAMSWVRQAPGKGLEWVGMIYINDNTYYASWAHGRFTISRDTSKNTVYLQMNSLRAEDTAVYFCARDIGISYYIGVSLWGQGTLVTVSS VL: EIVMTQSPSTLSASVGDRVIITCQASQSIGTRLSWYQQKPGKAPKLLIYGASKLATGVPSRFSGSGSGAEFTLTISSLQPDDFATYYCLGEYSYTTTDGIAFGQGTKLTVL | binds
13 | MYT11124 (antibody, V domains shown, MYT9412 HC variant) VH: EVQLVESGGGLVQPGGSLRLSCTASGFSLSTYAMSWVRQAPGKGLEWVGMIYINDNTYYASHAKGRFTISRDTSKNTVYLQMNSLRAEDTAVYFCARDIGISYYIGVSLWGQGTLVTVSS VL: EIVMTQSPSTLSASVGDRVIITCQASQSIGTRLSWYQQKPGKAPKLLIYGASKLATGVPSRFSGSGSGAEFTLTISSLQPDDFATYYCLGEYSYTTTDGIAFGQGTKLTVL | binds
14 | MYT11138 (antibody, V domains shown, MYT9412 HC variant) VH: EVQLVESGGGLVQPGGSLRLSCTASGFSLSTYAMSWVRQAPGKGLEWVGMIYINDNTYYASWAKGRFTISRDTSKNTVYLQMNSLRAEDTAVYFCARDIGISYYIHVSLWGQGTLVTVSS VL: EIVMTQSPSTLSASVGDRVIITCQASQSIGTRLSWYQQKPGKAPKLLIYGASKLATGVPSRFSGSGSGAEFTLTISSLQPDDFATYYCLGEYSYTTTDGIAFGQGTKLTVL | binds
15 | MYT11127 (antibody, V domains shown, MYT9412 HC variant) VH: EVQLVESGGGLVQPGGSLRLSCTASGFSLSTYAMSWVRQAPGKGLEWVGMIYINDNTYYASWAKHRFTISRDTSKNTVYLQMNSLRAEDTAVYFCARDIGISYYIGVSLWGQGTLVTVSS VL: EIVMTQSPSTLSASVGDRVIITCQASQSIGTRLSWYQQKPGKAPKLLIYGASKLATGVPSRFSGSGSGAEFTLTISSLQPDDFATYYCLGEYSYTTTDGIAFGQGTKLTVL | binds
16 | MYT11125 (antibody, V domains shown, MYT9412 HC variant) VH: EVQLVESGGGLVQPGGSLRLSCTASGFSLSTYAMSWVRQAPGKGLEWVGMIYINDNTYYASWHKGRFTISRDTSKNTVYLQMNSLRAEDTAVYFCARDIGISYYIGVSLWGQGTLVTVSS VL: EIVMTQSPSTLSASVGDRVIITCQASQSIGTRLSWYQQKPGKAPKLLIYGASKLATGVPSRFSGSGSGAEFTLTISSLQPDDFATYYCLGEYSYTTTDGIAFGQGTKLTVL | binds
17 | MYT11123 (antibody, V domains shown, MYT9412 HC variant) VH: EVQLVESGGGLVQPGGSLRLSCTASGFSLSTYAMSWVRQAPGKGLEWVGMIYINDNTYYAHWAKGRFTISRDTSKNTVYLQMNSLRAEDTAVYFCARDIGISYYIGVSLWGQGTLVTVSS VL: EIVMTQSPSTLSASVGDRVIITCQASQSIGTRLSWYQQKPGKAPKLLIYGASKLATGVPSRFSGSGSGAEFTLTISSLQPDDFATYYCLGEYSYTTTDGIAFGQGTKLTVL | binds
18 | MYT11116 (antibody, V domains shown, MYT9412 HC variant) VH: EVQLVESGGGLVQPGGSLRLSCTASGFSLSTYAMSWVRQAPGKGLEWVGMIYIHDNTYYASWAKGRFTISRDTSKNTVYLQMNSLRAEDTAVYFCARDIGISYYIGVSLWGQGTLVTVSS VL: EIVMTQSPSTLSASVGDRVIITCQASQSIGTRLSWYQQKPGKAPKLLIYGASKLATGVPSRFSGSGSGAEFTLTISSLQPDDFATYYCLGEYSYTTTDGIAFGQGTKLTVL | binds
19 | MYT11110 (antibody, V domains shown, MYT9412 HC variant) VH: EVQLVESGGGLVQPGGSLRLSCTASGFSLSTYAHSWVRQAPGKGLEWVGMIYINDNTYYASWAKGRFTISRDTSKNTVYLQMNSLRAEDTAVYFCARDIGISYYIGVSLWGQGTLVTVSS VL: EIVMTQSPSTLSASVGDRVIITCQASQSIGTRLSWYQQKPGKAPKLLIYGASKLATGVPSRFSGSGSGAEFTLTISSLQPDDFATYYCLGEYSYTTTDGIAFGQGTKLTVL | binds

— patent publication US20260209386A1 (MYTHIC THERAPEUTICS, published 2026)
